Assay results from patent US20120058906A1 (published 2012).

T1: rHuman Erythropoietin R/Fc Chimera, CF (R&D Systems Cat#963-ER) (human, UniProt P19235 25-250)
T1 construct: Bought reagent; also called EPO R/Fc; Epo R; Fc part of the bought chimera not given
T1 sequence: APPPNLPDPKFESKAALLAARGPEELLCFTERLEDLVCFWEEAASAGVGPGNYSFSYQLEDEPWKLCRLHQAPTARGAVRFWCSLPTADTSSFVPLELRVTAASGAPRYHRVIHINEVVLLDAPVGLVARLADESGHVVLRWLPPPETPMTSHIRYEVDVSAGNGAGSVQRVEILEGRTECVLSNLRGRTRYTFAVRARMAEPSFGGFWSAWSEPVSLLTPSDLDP

T2: rHuman Erythropoietin R/Fc Chimera, CF (R&D Systems Cat#963-ER) (human, UniProt P19235 25-250)
T2 construct: Bought Fc chimera; also called EPO R/Fc; EPOR; Fc part of the bought chimera not given
T2 sequence: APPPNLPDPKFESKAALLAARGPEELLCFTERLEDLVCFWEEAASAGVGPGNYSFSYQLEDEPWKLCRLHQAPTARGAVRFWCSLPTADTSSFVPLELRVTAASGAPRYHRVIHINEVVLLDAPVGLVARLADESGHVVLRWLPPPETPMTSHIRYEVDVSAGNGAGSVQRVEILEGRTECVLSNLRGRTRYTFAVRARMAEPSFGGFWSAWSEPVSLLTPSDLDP


Assays:
[1] = molecular target: T3, rHuman ErbB2/Fc Chimera, CF (R&D Systems Cat#1129-ER) (human, UniProt P04626 23-652); experiment: ECL (MSD multi-spot), antigen spotted on plate; Fab 44.1 nM; blank spot 200
T3 construct: Bought reagent; also called HER2/neu; human epidermal growth factor 2 receptor; Fc part of the bought chimera not given

[2] = molecular target: T4, rHuman P-Cadherin/Fc Chimera, CF (R&D Systems Cat#861-PC) (human, UniProt P22223 108-654); experiment: as above
T4 construct: Bought reagent; also called CDH3; Fc part of the bought chimera not given

[3] = molecular target: T5, Recombinant Human DLL4 (R&D Systems Cat#1506-D4/CF) (human, UniProt Q9NR61 27-524); experiment: as above
T5 construct: Bought reagent; also called delta-like protein 4

[4] = molecular target: T6, rHuman Notch-1/Fc Chimera, CF (R&D Systems Cat#3647-TK) (human, UniProt P46531 19-526); experiment: as above
T6 construct: Bought reagent; Fc part of the bought chimera not given

[5] = molecular target: T7, rHuman EGF R/Fc Chimera, CF (R&D Systems Cat#344-ER) (human, UniProt P00533 25-645); experiment: as above
T7 construct: Bought reagent; also called epidermal growth factor receptor; Fc part of the bought chimera not given

[6] = molecular target: T8, rHuman CD44/Fc Chimera, CF (R&D Systems Cat#3660-CD) (human, UniProt P16070 21-220); experiment: as above
T8 construct: Bought reagent; Fc part of the bought chimera not given

[7] = molecular target: T9, rHuman IGF-1 sR (IGF-1 sR), CF (R&D Systems Cat#391-GR) (human, UniProt P08069 31-932); experiment: as above
T9 construct: Bought soluble receptor; also called insulin-like growth factor-1 soluble receptor; IGF-R1

[8] = molecular target: T10, rHuman HGF R/c-MET/Fc Chimera, CF (R&D Systems Cat#358-MT/CF) (human, UniProt P08581 25-932); experiment: as above
T10 construct: Bought reagent; also called HGF R/Fc; hepatocyte growth factor receptor; Fc part of the bought chimera not given

[9] = molecular target: T1, rHuman Erythropoietin R/Fc Chimera, CF …; experiment: as above
[10] = molecular target: T11, rHuman IGF-1 sR (insulin-like growth factor-1 soluble receptor), CF (R&D Systems Cat#391-GR) (human, UniProt P08069 31-932); experiment: MSD ECL multi-spot, Fab 0.14 uM, blank 237
T11 construct: Bought soluble receptor; also called IGF-R1

[11] = molecular target: T12, rHuman ErbB2/Fc Chimera, CF (R&D Systems Cat#1129-ER) (human, UniProt P04626 23-652); experiment: MSD ECL multi-spot, Fab 0.14 uM, blank 237
T12 construct: Bought Fc chimera; also called HER2/neu; Fc part of the bought chimera not given

[12] = molecular target: T13, Recombinant Human DLL4 (R&D Systems Cat#1506-D4/CF) (human, UniProt Q9NR61 27-524); experiment: MSD ECL multi-spot, Fab 0.14 uM, blank 237
T13 construct: Bought recombinant protein; also called rHuman DLL4; delta-like protein 4

[13] = molecular target: T14, rHuman CD44/Fc Chimera, CF (R&D Systems Cat#3660-CD) (human, UniProt P16070 21-220); experiment: MSD ECL multi-spot, Fab 0.14 uM, blank 237
T14 construct: Bought Fc chimera; Fc part of the bought chimera not given

[14] = molecular target: T15, rHuman HGF R/c-MET/Fc Chimera, CF (R&D Systems Cat#358-MT/CF) (human, UniProt P08581 25-932); experiment: MSD ECL multi-spot, Fab 0.14 uM, blank 237
T15 construct: Bought Fc chimera; also called HGF R/Fc; Fc part of the bought chimera not given

[15] = molecular target: T16, rHuman Notch-1/Fc Chimera, CF (R&D Systems Cat#3647-TK) (human, UniProt P46531 19-526); experiment: MSD ECL multi-spot, Fab 0.14 uM, blank 237
T16 construct: Bought Fc chimera; Fc part of the bought chimera not given

[16] = molecular target: T17, rHuman P-Cadherin/Fc Chimera, CF (R&D Systems Cat#861-PC) (human, UniProt P22223 108-654); experiment: MSD ECL multi-spot, Fab 0.14 uM, blank 237
T17 construct: Bought Fc chimera; Fc part of the bought chimera not given

[17] = molecular target: T2, rHuman Erythropoietin R/Fc Chimera, CF …; experiment: MSD ECL multi-spot, Fab 0.14 uM, blank 237
[18] = molecular target: T18, rHuman EGF R/Fc Chimera, CF (R&D Systems Cat#344-ER) (human, UniProt P00533 25-645); experiment: MSD ECL multi-spot, Fab 0.14 uM, blank 237
T18 construct: Bought Fc chimera; Fc part of the bought chimera not given
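Further: blank spot per well as comparator with Hit at signal to blank ratio of 4 or more.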

Row | Binder | ECL signal [1] | ECL signal [2] | ECL signal [3] | ECL signal [4] | ECL signal [5] | ECL signal [6] | ECL signal [7] | ECL signal [8] | ECL signal [9] | ECL signal [10] | ECL signal [11] | ECL signal [12] | ECL signal [13] | ECL signal [14] | ECL signal [15] | ECL signal [16] | ECL signal [17] | ECL signal [18]
1 | Fab VH1-46_IGHD3-10*01_IGHJ4*01 & B3_IGKJ1*01 (Fab, V domains shown, also called IGHV1-46*01) VH: QVQLVQSGAEVKKPGASVKVSCKASGYTFTSYYMHWVRQAPGQGLEWMGIINPSGGSTSYAQKFQGRVTMTRDTSTSTVYMELSSLRSEDTAVYYCAREYYYGSGSYYNDYFDYWGQGTLVTVSS VL: not shown | 347 | 343 | 388 | 331 | 428 | 302 | 309 | 336 | 2390 |  |  |  |  |  |  |  |  | 
2 | Fab VH1-46_IGHD6-6*01_IGHJ1*01 & L6_IGKJ1*01 (Fab, V domains shown, Expressed in E. coli as Fab: heavy chain with CH1 plus Flag and His tags from Plasmid A, kappa light chain constant region from Plasmid C; also called Fab No. 1) VH: QVQLVQSGAEVKKPGASVKVSCKASGYTFTSYYMHWVRQAPGQGLEWMGIINPSGGSTSYAQKFQGRVTMTRDTSTSTVYMELSSLRSEDTAVYYCAREEYSSSSAEYFQHWGQGTLVTVSS VL: not shown |  |  |  |  |  |  |  |  |  | 663 | 870 | 19300 | 515 | 848 | 614 | 423 | 693 | 823
